Measurements taken from the supplement of paper PMC10724198.
± gives the standard deviation of the averaged measurements.

What follows are sequences tested on Saccharomyces cerevisiae (assay: protein stability index of tFT-peptide fusion (C-terminal peptide) (PSI (0-1 scale)); higher = more stable (slower turnover)). Settings: genetic background: wild type; temperature: 30 C.
Description: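 Multiplexed protein stability (MPS) profiling in S. cerevisiae. Random 12-aa peptides (tFT-X12 library) are fused to the C-terminus of a sfGFP-mCherry tandem fluorescent timer, after mCherry and a GGGS linker. Cells are FACS-sorted into 8 mCherry/sfGFP bins and deep-sequenced. The protein stability index (PSI) is the read-weighted bin average, scaled from 0 (unstable) to 1 (stable). Only peptides with >10 reads are reported; cells were grown at 30 °C in SC-His with glucose.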
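Also: PSI is a weighted mean of sequencing reads over stability bins, variants kept only with over 10 reads, mCherry proximal and sfGFP distal, peptide attached via GGGS linker.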

Sequence | protein stability index
FTPLPHAHPPPP | 0.664 ± 0.0034
FTRFWTKANDPT | 0.6913 ± 0.0014
FTVSPFIFLFSP | 0.653 ± 0.0074
FVCRQSGIWHLR | 0.686 ± 0.029
FVFGSVLPGPTC | 0.692 ± 0.0098
FVGVRTLSRIKI | 0.696 ± 0.053
FVHSTLPPSFSI | 0.735 ± 0.019
FVIAGDLYGLYV | 0.658 ± 0.045
FVKEGRVGTARS | 0.687 ± 0.099
FVPFVLFLLRPL | 0.582 ± 0.022
FVPQPFTPPSSF | 0.685 ± 0.065
FVRFLVGGLGRW | 0.606 ± 0.05
FVRLFSGTLKSV | 0.687 ± 0.033
FVSTSFPPWFSL | 0.684 ± 0.019
FVYHGLVGKRMV | 0.666 ± 0.051
FWECEYVIDDVD | 0.69053 ± 0.00035
FWEHFVLSVRPE | 0.758 ± 0.076
FWFFRGALVHPA | 0.599 ± 0.019
FWSCSTGHERVV | 0.711 ± 0.03
FYFRFPGFLAGF | 0.5687 ± 0.0052
FYGCRLLFLKAR | 0.5273 ± 0.00073
FYYRYDRRTRCV | 0.548 ± 0.012
GAAARSGSRKEL | 0.631 ± 0.029
GAAVSGGRARCP | 0.712 ± 0.064
GACDGEGGSRVR | 0.611 ± 0.0075

Sequence | protein stability index
GAEPTPYVAEAI | 0.701 ± 0.026
GAFSVPKAKNAL | 0.699 ± 0.1
GAGAHVPCSGRQ | 0.6754 ± 0.0034
GAGEGVGSVVVR | 0.632 ± 0.052
GAGGGGNLGWLR | 0.6788 ± 0.0063
GAGGGSGGGQPG | 0.656 ± 0.032
GAGGSGRRIGCR | 0.762 ± 0.052
GAGGVRCPWVFG | 0.674 ± 0.0075
GAGNVGSGCGGG | 0.631 ± 0.035
GAGRGRLGVGPV | 0.67 ± 0.066
GAGRRRAQEQQT | 0.728 ± 0.015
GAKHDSSRQSLR | 0.746 ± 0.086
GALARFEGAVRV | 0.702 ± 0.012
GAMLAGRHGWGL | 0.715 ± 0.04
GAPRYRLQRPVP | 0.672 ± 0.029
GAPTPPGAPPPA | 0.6642 ± 0.0048
GARGGGQSSFGE | 0.666 ± 0.012
GARGRGLVTESA | 0.703 ± 0.035
GARVGDRALASG | 0.7089 ± 0.0069
GATDMVTSGEWV | 0.757 ± 0.021
GATLETPIGCGR | 0.666 ± 0.0074
GAVHQLGTCLFF | 0.671 ± 0.045
GAYSSFNGNSGD | 0.681 ± 0.064
GCCGGGGVEGLE | 0.695 ± 0.022
GCGFYRTSRVPS | 0.717 ± 0.059

Sequence | protein stability index
GCGGVWGRSEKY | 0.684 ± 0.019
GCGHVFEVNYEC | 0.6206 ± 0.0053
GCGKRVVVVSEL | 0.6386 ± 0.00072
GCGLGEEGSSGV | 0.647 ± 0.0091
GCGRYWGVVRGC | 0.66 ± 0.037
GCHRRDALRTGD | 0.667 ± 0.053
GCLFLCPLSPLI | 0.685 ± 0.026
GCLIAGGIDCPP | 0.66 ± 0.072
GCPRSCYIPSSV | 0.72 ± 0.011
GCPSGRDIQSSH | 0.643 ± 0.01
GCRELVRCVMLG | 0.669 ± 0.083
GCRRGFRKGQDC | 0.645 ± 0.023
GCSACLVSSLAG | 0.63129 ± 4e-05
GCSGRRGRGGRG | 0.743 ± 0.046
GCTTDQIENEIR | 0.704 ± 0.033
GCYGRVLELAWR | 0.552 ± 0.035
GDDGGSGGCVER | 0.6606 ± 0.0051
GDDVGTEVIVET | 0.684 ± 0.0094
GDGQETEKNNAE | 0.604 ± 0.046
GDGRCAVPFWWG | 0.805 ± 0.074
GDKGLRPNMGLV | 0.645 ± 0.0099
GDRGGLARAGGA | 0.753 ± 0.065
GDSGPDDDLGIS | 0.667 ± 0.065
GDSWVVRSGVWV | 0.734 ± 0.13
GEAASEKKQEAG | 0.644 ± 0.084

Sequence | protein stability index
GEDGCGGSEAGG | 0.656 ± 0.028
GEGALTGGAGGQ | 0.647 ± 0.0074
GEGCPAGGHGCE | 0.6864 ± 0.0063
GEGGGAGGLEWG | 0.687 ± 0.081
GEGRWWGSFWVG | 0.672 ± 0.019
GEGSQTGSLIPL | 0.71 ± 0.031
GENAIVEVWAGG | 0.686 ± 0.022
GFCCLGGVRPSV | 0.655 ± 0.027
GFCRKESVRCEK | 0.683 ± 0.018
GFDFLHHIVASS | 0.728 ± 0.017
GFEAFGPFIPAF | 0.681 ± 0.019
GFEVAFSCSSWW | 0.716 ± 0.038
GFGKVIMEIESI | 0.715 ± 0.043
GFLGCGSGCGGG | 0.777 ± 0.1
GFLPDSKVKNPF | 0.673 ± 0.029
GFMSFAVTCGLL | 0.688 ± 0.11
GFQIVCSAGERV | 0.611 ± 0.027
GFSLLGPFAFWV | 0.688 ± 0.066
GFSSSFAGGLLF | 0.763 ± 0.036
GFSTCCLFWLTV | 0.529 ± 0.029
GFVLSFADLLGV | 0.653 ± 0.054
GFVQGNNGFLMK | 0.682 ± 0.034
GFWLVSCPWLLF | 0.612 ± 0.14
GFYAMWNSIFWF | 0.743 ± 0.001
GGAAGRRAAEVG | 0.694 ± 0.013

Sequence | protein stability index
GGAPAPPSRRPW | 0.696 ± 0.032
GGAVSRVGEGGR | 0.785 ± 0.02
GGCCLWVGFPGG | 0.6957 ± 0.0051
GGCSLRWARCRW | 0.686 ± 0.078
GGCVSRPLGRCV | 0.648 ± 0.088
GGDGAVSRRWGR | 0.685 ± 0.015
GGDGGLVMGGGN | 0.684 ± 0.018
GGDVCGWWCWRG | 0.645 ± 0.098
GGDWVVVALLGV | 0.596 ± 0.017
GGEVGRGRLGVV | 0.628 ± 0.018
GGFALIWQRVCP | 0.705 ± 0.011
GGGACRVCGCEV | 0.648 ± 0.0067
GGGECLWNKQAV | 0.687 ± 0.024
GGGGAGGGAGGG | 0.616 ± 0.042
GGGGCVGEWWGR | 0.7423 ± 0.0039
GGGGEGPGKSPR | 0.669 ± 0.14
GGGGFLGVVGVG | 0.58 ± 0.01
GGGGGGGGSLRV | 0.663 ± 0.038
GGGGGGGGVKGV | 0.66 ± 0.02
GGGGGGSTPALG | 0.667 ± 0.028
GGGGGLRGRGVR | 0.682 ± 0.057
GGGGGLVGGCVA | 0.696 ± 0.081
GGGGGWGVAGGV | 0.689 ± 0.013
GGGGLGTAVVGV | 0.6748 ± 0.0024
GGGGSTIGVYVL | 0.686 ± 0.0047

Sequence | protein stability index
GGGGVVGGLLCS | 0.761 ± 0.027
GGGKINSLHGAG | 0.681 ± 0.041
GGGLGGAGFRGG | 0.661 ± 0.051
GGGRGGARVGQL | 0.661 ± 0.013
GGGRGVVVTCST | 0.713 ± 0.038
GGGRRVRRGGGR | 0.678 ± 0.056
GGGSFVGLDFGG | 0.6567 ± 0.0036
GGGVGGGVGQRG | 0.705 ± 0.086
GGGVLLWEGGGW | 0.711 ± 0.02
GGGVRWRVGRGG | 0.686 ± 0.0082
GGGVSFWLGAVA | 0.647 ± 0.0081
GGGVVRGLEQRA | 0.637 ± 0.074
GGGVYPAGVVSG | 0.658 ± 0.01
GGGWGLRVSCGT | 0.656 ± 0.071
GGGWGRSKTETT | 0.672 ± 0.023
GGGWGWAGENTR | 0.698 ± 0.038
GGILSRVFFLCG | 0.679 ± 0.017
GGIQPEQYLNTL | 0.688 ± 0.019
GGIVVRGVGVRC | 0.661 ± 0.04
GGKGGWHRRWGC | 0.643 ± 0.062
GGLGGVRAGREG | 0.711 ± 0.02
GGLGREKLGGWR | 0.65 ± 0.091
GGLICRQGVGRG | 0.748 ± 0.033
GGLLSTVVVRVL | 0.524 ± 0.022
GGLRGERAGTDG | 0.637 ± 0.02

Sequence | protein stability index
GGLRGRPPASHR | 0.727 ± 0.074
GGLSGRFRSPSL | 0.754 ± 0.081
GGLWGSGGASGG | 0.742 ± 0.073
GGMDEVFRAHGP | 0.712 ± 0.018
GGMRGGYRGRCV | 0.679 ± 0.039
GGPHYVYPFCSF | 0.699 ± 0.019
GGPPFAPPPPPH | 0.71 ± 0.026
GGPVEQVYSKGR | 0.721 ± 0.042
GGQEEWFGGAWL | 0.727 ± 0.036
GGRARRGLGGPG | 0.6758 ± 0.0034
GGRDVGEMVDLQ | 0.758 ± 0.14
GGRGGCGCGWVV | 0.682 ± 0.11
GGRGGRGQGWYR | 0.661 ± 0.007
GGRGGVWWVGRV | 0.675 ± 0.037
GGRGLGVVGEVL | 0.72 ± 0.046
GGRGVGVVLGVC | 0.5219 ± 0.00031
GGRGWEGRGGSG | 0.684 ± 0.022
GGRLGRGAKGRV | 0.669 ± 0.082
GGRPVTGIAGML | 0.666 ± 0.025
GGRTFHPLWGTT | 0.735 ± 0.029
GGRWNRNSGRGG | 0.693 ± 0.021
GGSARSIPVHVV | 0.584 ± 0.025
GGSDQLGDSVAG | 0.647 ± 0.057
GGSETHLTVTIY | 0.636 ± 0.0077
GGSGAVRSVGEW | 0.668 ± 0.036

Sequence | protein stability index
GGSSVGALGCLC | 0.687 ± 0.0084
GGTPGSYDIIGV | 0.728 ± 0.016
GGVGGPVLGAGG | 0.638 ± 0.051
GGVGRAALRWYG | 0.68 ± 0.03
GGVGRRVRLGAE | 0.625 ± 0.037
GGVGSCLVLSAR | 0.668 ± 0.036
GGVLGRRLLGGR | 0.64 ± 0.051
GGVPRNRAQIGV | 0.758 ± 0.082
GGVRGWAAFSAE | 0.682 ± 0.028
GGVRRRSAVGVR | 0.65129 ± 0.00017
GGVSKGLGARGR | 0.601 ± 0.042
GGVTEGPGWCVR | 0.735 ± 0.017
GGVVEGVSLAQC | 0.727 ± 0.049
GGVVGASMSGTP | 0.683 ± 0.023
GGVVLTWLGENC | 0.717 ± 0.025
GGVWAGEATGVQ | 0.666 ± 0.052
GGVWWLGVVGGV | 0.657 ± 0.081
GGWCGSGGVVRG | 0.675 ± 0.12
GGWGRGERRSRE | 0.652 ± 0.045
GGWLGGLGCFMV | 0.708 ± 0.046
GHGEGPGRDLGG | 0.648 ± 0.055
